From patent US9610371B2, “Anticancer therapy” (STC.UNM, priority 2005, dated 2017)
Like-named read-outs stand apart in the source and are kept apart here.

Assays:
[1] = Biodistribution in tumor bearing and non-tumor bearing rats; settings: rat, in vivo
Description: FIG. 13: A, B Graphical comparisons of Tumor and Non-Tumor Bearing Rats at 1 hour post injection of ^213Bi-DOTATOC. Columns, means, Bars, SEM, white columns represent non-tumor bearing rats and black columns represent tumor bearing rats. Significance of p<0.05 is represented by a (*).
(§1) For the pathology scoring, to evaluate nephrotoxicity on the 6 treatment groups, a frequency analysis was performed in StatXact-5 using the Jonckheere-Terpstra Test. For all other data, graphs and calculations were performed in SigmaStat®-3 and SigmaPlot®-9 as well as Graph Pad Prism®-4 using the t-test. For all statistical tests results were considered significant when p<0.05. Animal biodistribution and tumor volume data are expressed as the average, plus or minus the SEM.

[2] = as above; settings: rat, in vivo, total radioactivity
[3] = rat, in vivo
Description: A 26 week toxicology study was performed in 3 groups of rats. The first group, Cohort 7 (N=3), received three fractionated doses ^213Bi-DOTATOC (specific activity 7.4 MBq ^213Bi/1 μG DOTATOC with a total average cumulative dose of 12.75±1.1 MBq. The second group, Cohort 8 (N=3), received D-lysine (concentration 400 mg/mL) immediately before receiving three fractionated doses ^213Bi-DOTATOC with a specific activity 7.4 MBq ^213Bi/1 μG DOTATOC with a total average cumulative dose of 11.39±0.14 MBq. The third group, cohort 9 (N=3) received 3 fractionated doses of DOTATOC. Rats were injected with 2.56 μg, 0.5 μg, 0.5 μg DOTATOC, on day 1, day 2 and day 3, respectively. As described earlier, each dose was divided into 2 injections separated by a 1 hour interval.
(§2) Organs were harvested and immediately placed in 10% formalin for a minimum of 48 hours. Following fixation in formalin, bone samples were placed in decalcifying solution for 36 hours. Trimmed organs were sent to the TriCore Laboratories (Albuquerque, N. Mex.) where they were embedded in paraffin, sectioned, and stained with Hematoxylin and Eosin (H and E). Histopathologic evaluation was performed by a board certified veterinary pathologist (DFK) who examined the following organs of each animal: heart, lung, kidneys, testicles, spleen, pancreas, pituitary bone marrow, urinary bladder, adrenals, and two different sections of the liver.
(§3) Sections of both the right and left kidneys were examined to determine nephrotoxicity in all cohorts. Bone marrow was examined to evaluate hypoplasia and other lesions in Cohorts 3 and 4. Interstitial nephritis and bone marrow were scored as follows: 0 no lesions, 1 minimal lesions, 2 mild lesions, 3 moderate lesions, and 4 severe lesions.

[4] = 25 day toxicology in tumor bearing male Lewis rats; assay type: in vivo, Lewis rat; settings: rat, in vivo
Description: Toxicology was assessed at 25 days in 4 groups of tumor bearing male Lewis rats (average volume […]). Rats in the first group, Cohort 1, were injected on day 1 only. Rats in second cohort were injected on days 1 and 2, while rats in the third cohort were injected on days 1, 2, and 3. Rats were injected with 2.56 μg, 0.5 μg, 0.5 μg DOTATOC, on day 1, day 2 and day 3, respectively, with a nominal activity of 3.7 MBq. Each dose was divided into 2 injections at 1 hour intervals. The rats received the following cumulative average activities per group: Cohort 1 (N=3) received 4.3±0.7 MBq, Cohort 2 (N=3) received 9.0±0.4 MBq, and Cohort 3 (N=4) received 12.6±0.3 MBq of ^213Bi-DOTATOC. Cohort 4 (N=4) was added as control group and injected twice daily with unlabelled DOTATOC on three consecutive days.
After 24 days, the animals were put into a metabolic cage to collect urine samples for creatinine clearance analysis. Creatine clearance was determined as previously described (20). After 24 hour urine collection, the animals were euthanized with halothane. For blood collection, a cardiac puncture was performed. Blood analysis consisted of hemoglobin (Hgb), hematocrit (Hct), red blood cells (RBC's), and white blood cells (WBC's) with differential, and platelets (Pt's). Additionally T4 and FSH values were assessed using the serum.
Additional groups were then designed to study the effects of the treatment on a somatostatin receptor positive tumor. The first group was designed to study the effects of treatment on large volume tumors (average volume 1720±608 mm^3). This group, Cohort 5 (N=5), received three fractionated doses of ^213Bi-DOTATOC (specific activity 7.4 MBq ^213Bi/1 μG DOTATOC) with a total average cumulative dose of 13.0±0.5 MBq of ^213Bi-DOTATOC. The last cohort, the sixth cohort (N=4), was injected with two fractionated doses, ^213Bi-DOTATOC (specific activity 7.4 MBq ^213Bi/1 μG DOTATOC) with a total average cumulative dose of 22.2±0.7 MBq of ^213Bi-DOTATOC. As described earlier, each dose was divided into 2 injections separated by a 1 hour interval. Tumor response to the treatment was assessed in all cohorts by daily tumor measurements.
as §2, §3, §1

SMILES: C[C@@H](O)[C@@H]1NC(=O)[C@H](CCCCN)NC(=O)[C@@H](Cc2c[nH]c3ccccc23)NC(=O)[C@H](Cc2ccc(O)cc2)NC(=O)[C@@H](NC(=O)[C@@H](Cc2ccccc2)NC(=O)CN2CCN(CC(=O)O)CCN(CC(=O)O)CCN(CC(=O)O)CC2)CSSC[C@@H](C(=O)N[C@H](CO)[C@@H](C)O)NC1=O [^213Bi-DOTATOC, metal not drawn]
- localization in stomach and muscle, tumor vs non-tumor bearing rats [1]: significantly higher
- tissue uptake at 3 h ([2]; accumulation of radioactivity in the blood): 0.02 %ID/g
- tissue uptake at 3 h ([2]; accumulation of radioactivity in the bone marrow): 0.06 ± 0.02 %ID/g
- tissue uptake at 3 h ([2]; accumulation of radioactivity in the kidneys): 11.2 ± 0.46 %ID/g
- tissue uptake at 3 h ([2]; accumulation of radioactivity in the liver): 0.14 ± 0.02 %ID/g
- tissue uptake at 3 h ([2]; accumulation of radioactivity in the spleen): 0.08 ± 0.01 %ID/g
- tissue uptake at 3 h ([2]; accumulation of radioactivity in the stomach): 0.08 ± 0.01 %ID/g
- tissue uptake at 3 h ([2]; accumulation of radioactivity in the testis): 0.02 %ID/g
- FSH or T4 serum values vs control animals [3]: No significant changes
- adrenal histopathology [3]: minimal nodular cortical hyperplasia in both adrenals
- creatinine clearance vs control group (DOTATOC only) [3]: No difference
- hematology results vs control group [3]: did not show any significant differences
- liver histopathology [3]: mild or moderate cholangiohepatitis and perivasculitits
- lung histopathology [3]: minimal to mild interstitial pneumonia
- microcystic degeneration in the pituitary [3]: mild to moderate
- microcystic pancreatic degeneration [3]: mild to moderate
- rats with one adrenal each with nodular cortical hyperplasia [3]: 2 rats
- FSH values vs control animals [4]: No significant changes
- average histopathologic score for nephrititis [4]: 1
- hematology results vs control group [4]: did not show any significant differences
- histopathological examination of heart, lungs, liver, spleen, urinary bladder [4]: no evidence of treatment induced toxicity
- histopathology of testes, adrenals, pancreas [4]: No histopathologic abnormalities
- likelihood of interstitial nephrititis with dose [4]: increased with increasing dose
- nephrotoxicity with low-dose [4]: minimal nephrotoxicity
- toxicity in the high-dose treatment cohort (kidney) [4]: Minimal toxicity
